# Data taken from the supplement of paper PMC12042874.
# ± gives the uncertainty stated by the source.
# Test: amyloid nucleation score (Sup35N fusion, yeast selection) (log enrichment); library NNK2; higher = more nucleation; inactive = no reads after selection
# How it was run: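 Sup35N fusions to peptides of 20 random codons were expressed in psi-negative yeast, induced 24 hours with 100 μM copper sulfate, and grown 7 days at 30°C on medium lacking adenine and uracil. Input and output plasmid inserts were sequenced by Illumina. The nucleation score is the DiMSum log enrichment of output over input reads, centred on the mode score of non-aggregating sequences. Sequences with under 100 input reads were excluded.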
row,Substance,amyloid nucleation score
1,SSLRLDIVRTVHYSQIPEDA,1.04 ± 0.33
2,IIVFKEESYIYKTRSVLGSR,-0.503 ± 0.56
3,YLPFMWCCMIWWAGGVCRL,-0.143 ± 0.76
4,CARSWLRVLGTSPEKMKG,0.627 ± 0.74
5,TRAHSED,0.49 ± 0.32
6,KRYWSPVFVQNYIDDFKVSD,0.453 ± 0.34
7,SADRRQGITRFGTFNGGVRS,0.481 ± 0.24
8,ELVGYNVVGAIGSQ,-0.022 ± 0.26
9,KICCIQVLLKYMGQWVQFR,0.053 ± 1.1
10,GANMLETV,-0.085 ± 0.47
11,DSFIIASRL,1.69 ± 0.1
12,VRDVKLLPKMVGSNIIGSVL,inactive
13,TTSRLRWKRSHHKW,1.4 ± 0.29
14,CCTTIEGDTLCGCFWD,10.08 ± 0.038
15,CAKGPKSWQNGNE,0.626 ± 0.8
16,KSFGVDYFFCVKLTSCGIQC,3.25 ± 0.12
17,GCISVNCHSLLRTHAFRG,1.28 ± 0.1
18,GYASTDEVMTLRMYLTSIYT,-0.187 ± 0.55
19,FVRHTHFG,-1.21 ± 1.1
20,ILCYMFVYYAYA,0.016 ± 1.1
21,FSVLWEMDRLVHG,0.95 ± 0.29
22,SGSVLFGRVYRRRFLFWVVD,inactive

row,Substance,amyloid nucleation score
1,MLSTSDPVGFGRFCQNDWLN,0.256 ± 0.55
2,SKGSGICRRISTEYDGVGQS,0.6 ± 0.42
3,YPNLFS,0.522 ± 0.74
4,DNRKDSFMLHSFGTKVSGHK,0.918 ± 0.37
5,CWGNGGQKRLFVLFSFAY,0.063 ± 1.1
6,ASGVYHDSFRRLCCMGDLSC,-0.121 ± 0.18
7,VSSNSVWSIY,-1.01 ± 0.44
8,PYQAIHYVNRCGFWLTASCA,0.36 ± 0.62
9,LISVSTRKCVIIG,-0.326 ± 0.45
10,VICLCVLFRGSCRIKILDIV,-1.37 ± 1.1
11,FMTNGFFVSLWFTCGDSVLS,5.68 ± 0.078
12,YVCCR,0.565 ± 0.46
13,HCGYEAIILWGVRFCGILQR,-0.357 ± 1.1
14,GLWDSRMAFSRTS,3.57 ± 0.078
15,SDINRVVGLPRTRLALRSKR,-0.447 ± 0.54
16,NAIRFLVMLVGTWF,0.25 ± 0.24
17,IEIHALRPEQMFSVLGYGVQ,0.146 ± 0.27
18,TSGMYMCFLMLLVFCQLLNG,-1.21 ± 0.44
19,RLLSTCMILMMASRTCYVYN,0.69 ± 0.52
20,FCRDLVSGLIMTMPLCTDEM,0.079 ± 0.5
21,RTSSL,-0.336 ± 0.49
22,WHSHMYNWWEQ,1.09 ± 0.28

row,Substance,amyloid nucleation score
1,LLTYYFVLTLVPSMFTSFVF,1.49 ± 0.15
2,AERIFSQ,-1.45 ± 0.62
3,FPENDWL,-0.552 ± 0.44
4,LCQHREMALMLGGEPADDWG,1.87 ± 0.36
5,DECAVPRSE,0.7 ± 0.51
6,FYQFLNSNGKYTGVYGAAPR,-1.01 ± 0.41
7,LFRDTSQLGNSVIVTYYM,9.029 ± 0.052
8,VRGLFVLTVLEVS,-0.161 ± 1.1
9,VDTGEVNTF,1.76 ± 0.086
10,HGYSWVVI,0.019 ± 0.19
11,SISWVVYSTV,2.1 ± 0.084
12,SLSLQGLSFMPFCGRSGSVV,inactive
13,EGCRMLNIYLPDFLSFLDTG,-1.16 ± 0.78
14,VKSRRLTYNS,0.192 ± 0.79
15,CLRILGDISSFRGMRHTTLH,0.042 ± 1.1
16,MVMGTYVIVRLYKHKNCNAY,-1.36 ± 0.55
17,FMIFDVGNSGKYLLSVS,-0.774 ± 0.27
18,IDFKHVL,-0.964 ± 0.39
19,VYRNNL,-1.84 ± 1.1
20,FSVCHVQDCSSAGRMYYLRL,3.98 ± 0.055
21,PSQHSWGWARCLQDCDSMPG,0.591 ± 0.34
22,CNDGMTTSDYWWCSARLDPY,0.345 ± 0.2

row,Substance,amyloid nucleation score
1,SWVEGRLDGVFWRLVLFTEN,0.433 ± 0.74
2,LYCRTPFCTMTLELMKMTL,0.128 ± 0.24
3,RNFRSCP,0.797 ± 0.44
4,MRCNYLAEYRFQRG,-0.669 ± 0.44
5,WLVGHKLKYA,0.113 ± 0.22
6,NVLDASRNLE,1.14 ± 0.42
7,GTVLMRFGGCLFFVMSRQNC,1.89 ± 0.42
8,CFRKFRMEEPLGIRFSHLDT,-0.345 ± 0.21
9,GRILNFMSHDWGDHMICGKK,0.65 ± 0.66
10,VLSNYGNYISDWQLQLRLT,-0.149 ± 0.32
11,FINWHGMHSL,0.89 ± 0.16
12,RYRHLTFLVFCIAVPVGFWR,2.04 ± 0.14
13,MFMANGSWTYEEVIE,1.47 ± 0.16
14,WGSMYRYFVDGSWFVVDISP,-0.26 ± 0.27
15,NFLWPCRIHVQGCIHISDTD,6.171 ± 0.045
16,QLVLT,1.14 ± 0.21
17,LCYMFIFRTWMLLWVQTMKN,inactive
18,AVDSHVIYSV,-0.96 ± 0.45
19,SRFVLRFSRGLEGRTSSDMR,0.294 ± 0.42
20,CFKLTNINAL,inactive
21,TGCWVEERTRLRLRIYDLLY,0.004 ± 1.1
22,SILGVCSRLSYVRSVTFQGV,0.998 ± 0.61
